The values that follow come from patent publication US10562947B2, “Compositions and methods for preventing or treating diseases, conditions or processes characterized by aberrant fibroblast proliferation and extracellular matrix deposition” (MOERAE MATRIX, INC., priority 2011, dated 2020).

What all share (assay): Kinase Profiling Assay
What all share (assay type): biochemical
Holding throughout (conditions): 100 μM peptide

For one test, the target named is CDK1/cyclinB(h) (Homo sapiens, UniProt P06493). The method, boiled down: (§1)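 In duplicate, the activities of 266 available human kinases were determined with MK2 inhibitory peptides present, as a measure of peptide selectivity.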
CDK1/cyclinB(h), sequence (P06493 whole entry): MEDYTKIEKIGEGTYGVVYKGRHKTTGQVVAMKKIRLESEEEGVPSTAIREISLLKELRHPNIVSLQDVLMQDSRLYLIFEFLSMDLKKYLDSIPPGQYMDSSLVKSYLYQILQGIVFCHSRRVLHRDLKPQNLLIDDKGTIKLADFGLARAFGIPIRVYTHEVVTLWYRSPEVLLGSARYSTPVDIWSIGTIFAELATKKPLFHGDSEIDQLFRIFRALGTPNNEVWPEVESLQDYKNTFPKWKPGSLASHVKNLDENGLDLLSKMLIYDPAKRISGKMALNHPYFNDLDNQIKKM
CDK1/cyclinB(h), sequence (P14635 whole entry partner): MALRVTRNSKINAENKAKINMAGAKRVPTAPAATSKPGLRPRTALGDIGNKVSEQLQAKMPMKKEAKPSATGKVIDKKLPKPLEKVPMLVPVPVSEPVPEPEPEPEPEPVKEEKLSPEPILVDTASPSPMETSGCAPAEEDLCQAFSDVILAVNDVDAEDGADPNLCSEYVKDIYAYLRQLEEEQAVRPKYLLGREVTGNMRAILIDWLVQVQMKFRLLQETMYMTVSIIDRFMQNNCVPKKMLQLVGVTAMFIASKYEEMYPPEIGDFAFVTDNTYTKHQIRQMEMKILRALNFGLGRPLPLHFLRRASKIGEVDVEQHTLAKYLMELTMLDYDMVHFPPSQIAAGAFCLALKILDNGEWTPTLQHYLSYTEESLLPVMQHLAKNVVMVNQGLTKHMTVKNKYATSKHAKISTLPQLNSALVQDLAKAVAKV
A further test has as its target CaMKIIβ(h) (Homo sapiens, UniProt Q13554). The method, boiled down: as §1
The target in the next test is T1, CaMKIV(h) (Homo sapiens, UniProt Q16566).
T1 sequence (Q16566 1-473): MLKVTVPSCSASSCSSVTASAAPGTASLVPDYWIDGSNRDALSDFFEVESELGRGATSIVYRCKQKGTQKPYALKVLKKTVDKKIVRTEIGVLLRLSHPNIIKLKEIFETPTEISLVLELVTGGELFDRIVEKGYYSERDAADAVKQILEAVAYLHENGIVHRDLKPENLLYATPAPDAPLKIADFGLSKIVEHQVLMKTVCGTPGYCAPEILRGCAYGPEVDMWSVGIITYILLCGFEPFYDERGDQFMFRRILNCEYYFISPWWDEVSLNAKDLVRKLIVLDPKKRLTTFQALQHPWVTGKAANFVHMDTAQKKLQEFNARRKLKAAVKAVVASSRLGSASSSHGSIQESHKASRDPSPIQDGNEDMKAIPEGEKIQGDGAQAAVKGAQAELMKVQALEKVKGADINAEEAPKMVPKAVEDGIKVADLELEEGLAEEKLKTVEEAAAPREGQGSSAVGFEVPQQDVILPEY
The method, boiled down: as §1

A further test has as its target T2, EphB2(h) (Homo sapiens, UniProt P29323).
T2 sequence (P29323 19-1055): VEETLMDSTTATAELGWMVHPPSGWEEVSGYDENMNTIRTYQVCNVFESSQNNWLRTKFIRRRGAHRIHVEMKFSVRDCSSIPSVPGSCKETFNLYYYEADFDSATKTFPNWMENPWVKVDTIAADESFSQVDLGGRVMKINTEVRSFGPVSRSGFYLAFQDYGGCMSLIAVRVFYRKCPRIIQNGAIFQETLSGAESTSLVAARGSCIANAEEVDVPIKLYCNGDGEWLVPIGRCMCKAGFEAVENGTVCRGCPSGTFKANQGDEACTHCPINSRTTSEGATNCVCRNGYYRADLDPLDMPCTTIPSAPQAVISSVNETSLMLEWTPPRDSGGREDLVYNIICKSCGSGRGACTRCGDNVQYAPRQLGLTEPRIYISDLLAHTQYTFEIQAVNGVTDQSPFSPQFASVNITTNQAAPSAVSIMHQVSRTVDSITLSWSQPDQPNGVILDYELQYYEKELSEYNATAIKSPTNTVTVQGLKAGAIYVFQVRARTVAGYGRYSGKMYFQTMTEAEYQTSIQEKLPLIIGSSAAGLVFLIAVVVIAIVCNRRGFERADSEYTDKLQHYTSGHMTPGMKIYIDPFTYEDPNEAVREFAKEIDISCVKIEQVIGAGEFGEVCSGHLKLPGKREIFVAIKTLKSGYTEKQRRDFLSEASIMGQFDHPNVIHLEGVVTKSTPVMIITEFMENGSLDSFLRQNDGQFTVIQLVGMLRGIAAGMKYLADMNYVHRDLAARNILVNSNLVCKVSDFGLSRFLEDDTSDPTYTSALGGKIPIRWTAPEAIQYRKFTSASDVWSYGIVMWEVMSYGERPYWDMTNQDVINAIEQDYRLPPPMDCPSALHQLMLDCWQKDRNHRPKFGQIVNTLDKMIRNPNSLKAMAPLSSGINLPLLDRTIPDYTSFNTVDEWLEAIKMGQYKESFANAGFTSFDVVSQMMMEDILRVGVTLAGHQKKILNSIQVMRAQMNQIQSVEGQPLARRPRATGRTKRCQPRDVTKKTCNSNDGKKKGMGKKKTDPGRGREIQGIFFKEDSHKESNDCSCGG
The method, boiled down:
as §1

The next test addresses T3, PKG1α(h) (Homo sapiens, UniProt Q13976).
T3 construct: purchased Millipore (IC50 Profiler Express service)
T3 sequence (Q13976 1-671): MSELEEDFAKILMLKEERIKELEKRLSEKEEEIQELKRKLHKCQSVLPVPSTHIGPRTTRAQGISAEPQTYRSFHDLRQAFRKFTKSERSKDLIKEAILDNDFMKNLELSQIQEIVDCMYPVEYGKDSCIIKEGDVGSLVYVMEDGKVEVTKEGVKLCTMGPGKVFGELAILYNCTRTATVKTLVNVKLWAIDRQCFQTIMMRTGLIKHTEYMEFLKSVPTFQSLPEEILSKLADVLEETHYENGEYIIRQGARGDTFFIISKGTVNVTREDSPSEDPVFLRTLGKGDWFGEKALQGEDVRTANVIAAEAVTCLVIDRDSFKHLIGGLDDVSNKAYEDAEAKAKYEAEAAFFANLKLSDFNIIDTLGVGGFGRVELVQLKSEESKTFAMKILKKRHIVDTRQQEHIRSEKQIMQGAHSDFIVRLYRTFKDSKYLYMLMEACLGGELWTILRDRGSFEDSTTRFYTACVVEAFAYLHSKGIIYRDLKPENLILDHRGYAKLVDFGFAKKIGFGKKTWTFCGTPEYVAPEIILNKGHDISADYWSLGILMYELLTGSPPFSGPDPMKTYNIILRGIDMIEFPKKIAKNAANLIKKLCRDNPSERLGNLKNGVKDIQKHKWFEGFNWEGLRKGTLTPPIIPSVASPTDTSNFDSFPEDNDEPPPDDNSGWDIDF
The method, boiled down: as §1

CaMKIIβ(h), sequence (Q13554 whole entry): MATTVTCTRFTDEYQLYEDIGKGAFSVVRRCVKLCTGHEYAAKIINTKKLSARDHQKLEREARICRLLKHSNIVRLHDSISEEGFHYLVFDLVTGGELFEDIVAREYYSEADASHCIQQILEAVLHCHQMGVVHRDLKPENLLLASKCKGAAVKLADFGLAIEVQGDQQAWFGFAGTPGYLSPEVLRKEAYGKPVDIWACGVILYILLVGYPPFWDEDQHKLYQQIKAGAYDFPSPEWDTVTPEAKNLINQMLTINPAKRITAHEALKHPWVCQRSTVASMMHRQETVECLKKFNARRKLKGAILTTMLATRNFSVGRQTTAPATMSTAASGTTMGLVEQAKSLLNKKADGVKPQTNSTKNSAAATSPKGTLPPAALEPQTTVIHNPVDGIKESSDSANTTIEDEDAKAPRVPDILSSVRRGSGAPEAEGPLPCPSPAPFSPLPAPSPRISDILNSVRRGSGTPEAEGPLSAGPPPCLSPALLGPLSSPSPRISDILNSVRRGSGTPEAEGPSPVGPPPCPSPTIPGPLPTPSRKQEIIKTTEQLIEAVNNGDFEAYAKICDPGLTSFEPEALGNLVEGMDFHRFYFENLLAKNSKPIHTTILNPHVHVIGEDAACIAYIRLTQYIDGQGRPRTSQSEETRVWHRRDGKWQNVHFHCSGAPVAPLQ

With FAKLAARLYRKALARQLGVAA [MMI-0300], the “CDK1/cyclinB(h) % activity” value with CDK1/cyclinB(h) was 73%. Further, the “CaMKIIβ(h) % activity” value in the test with CaMKIIβ(h) is reported as 2%. In the test with CaMKIV(h), the “CaMKIV(h) % activity” value is given as 17%. Moreover, the “EphB2(h) % activity” value with EphB2(h) worked out at 18%. Moreover, in the test with PKG1α(h), the “PKG1α(h) % activity” value is on record as 64%.

On to KAFAKLAARLYRKALARQLGVAA [MMI-0400], for which, in the test with CDK1/cyclinB(h), the “CDK1/cyclinB(h) % activity” value is on record as 74%. In the test with CaMKIIβ(h), the “CaMKIIβ(h) % activity” value turned out to be 11%. The “CaMKIV(h) % activity” value in the test with CaMKIV(h) is listed as 18%. Besides, in the test with EphB2(h), the “EphB2(h) % activity” value was 22%. Also, the “PKG1α(h) % activity” value in the test with PKG1α(h) came to 58%.

For the sequence “HRRIKAWLKKIKALARQLGVAA (Mammalian) [MMI-0500]”, the “CDK1/cyclinB(h) % activity” value in the test with CDK1/cyclinB(h) stood at 57%. In the test with CaMKIIβ(h), the “CaMKIIβ(h) % activity” value was 3%. Moreover, the “CaMKIV(h) % activity” value in the test with CaMKIV(h) is given as −1%. In addition, in the test with EphB2(h), the “EphB2(h) % activity” value was 70%. Further, in the test with PKG1α(h), the “PKG1α(h) % activity” value was 25%.

In the case of “YARAAARQARAKALNRQLGVA (Mammalian) [MMI-0200]”, in the test with CaMKIIβ(h), the “CaMKIIβ(h) % activity” value is 53%. In addition, the “CaMKIV(h) % activity” value with CaMKIV(h) came out at 71%. For the same sequence, the “EphB2(h) % activity” value with EphB2(h) turned out to be 128%. In addition, the “PKG1α(h) % activity” value with PKG1α(h) is on record as 70%.
